This passage reports Kd results from patent US20180355053A1 (published 2018).

The labels stand for the following.
B1: CD20-4GL-SIRPα (bispecific antibody)
heavy: not shown
light: QIVLSQSPAILSASPGEKVTMTCRASSSVSYIHWFQQKPGSSPKPWIYATSNLASGVPVRFSGSGSGTSYSLTISRVEAEDAATYYCQQWTSNPPTFGGGTKLEIKRTVAAPSVFIFPPSDEQLKSGTASVVCLLNNFYPREAKVQWKVDNALQSGNSQESVTEQDSKDSTYSLSSTLTLSKADYEKHKVYACEVTHQGLSSPVTKSFNRGEC
B2: SIRPα-CD20 (bispecific antibody)
heavy: not shown
light: B1 light
B3: CD20-2GL-SIRPα (bispecific antibody)
heavy: not shown
light: B1 light

Chain of CD47-His (Q08722 19-139): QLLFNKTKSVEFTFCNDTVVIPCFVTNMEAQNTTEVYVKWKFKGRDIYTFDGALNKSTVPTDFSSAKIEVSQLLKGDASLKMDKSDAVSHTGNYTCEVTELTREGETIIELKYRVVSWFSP

This assay concerns the target CD47-His (UniProt Q08722 19-139). The assay is described as follows: SPR (Biacore). (In general: Surface plasmon resonance follows binding to a sensor surface in real time, without labels.)
Usually Kd stands for the constant that tells how readily two partners part at equilibrium. Lower therefore signals tighter binding. The molecule B1 yielded a Kd of 15.9 nM. Then B2, with 6.39 nM; and B3, with 21.4 nM.
